Data reported in PMC5493754, “Myosin 7 and its adaptors link cadherins to actin” (Nature Communications, 2017).

T1: YFP-Harmonin NPDZ1.PDZ2 (human, UniProt Q9Y6N9-1 1-301)
T1 construct: Harmonin-a1 (USH1C), human, residues 1-301 of UniProt Q9Y6N9-1; also called ^YFPNPDZ1.PDZ2; source: E. coli BL21 (DE3) Rosetta, purified (Glutathione Sepharose 4B, size-exclusion chromatography)
T1 sequence (looked up): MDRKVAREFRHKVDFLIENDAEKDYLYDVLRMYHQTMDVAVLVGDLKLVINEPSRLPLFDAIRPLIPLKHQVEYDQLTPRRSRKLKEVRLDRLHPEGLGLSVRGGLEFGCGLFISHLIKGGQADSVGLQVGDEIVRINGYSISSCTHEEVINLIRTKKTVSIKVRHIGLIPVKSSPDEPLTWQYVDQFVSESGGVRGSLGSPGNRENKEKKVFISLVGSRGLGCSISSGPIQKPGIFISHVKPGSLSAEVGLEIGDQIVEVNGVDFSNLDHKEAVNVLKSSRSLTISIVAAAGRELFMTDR

T2: YFP-Full length (FL)-harmonin (harmonin-a1) (human, UniProt Q9Y6N9-1 1-552)
T2 construct: Harmonin-a1 (USH1C), human, residues 1-552 of UniProt Q9Y6N9-1; also called ^YFPFL (isoA); ^YFPFL; source: E. coli BL21 (DE3) Rosetta, purified (Glutathione Sepharose 4B, size-exclusion chromatography)
T2 sequence (looked up): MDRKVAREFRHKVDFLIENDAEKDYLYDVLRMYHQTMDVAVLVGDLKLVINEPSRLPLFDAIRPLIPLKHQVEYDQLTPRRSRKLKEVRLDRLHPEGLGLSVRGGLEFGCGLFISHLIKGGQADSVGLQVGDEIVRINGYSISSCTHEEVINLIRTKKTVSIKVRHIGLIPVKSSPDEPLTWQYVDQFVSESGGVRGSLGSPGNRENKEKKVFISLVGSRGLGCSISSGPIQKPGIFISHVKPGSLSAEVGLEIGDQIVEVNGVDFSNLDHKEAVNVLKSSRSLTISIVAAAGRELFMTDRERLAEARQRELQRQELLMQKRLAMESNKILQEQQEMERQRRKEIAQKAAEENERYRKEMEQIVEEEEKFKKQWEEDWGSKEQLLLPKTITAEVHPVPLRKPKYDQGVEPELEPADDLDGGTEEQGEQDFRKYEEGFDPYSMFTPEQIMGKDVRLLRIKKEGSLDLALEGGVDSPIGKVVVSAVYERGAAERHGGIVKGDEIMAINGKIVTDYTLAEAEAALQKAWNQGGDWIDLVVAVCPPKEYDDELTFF

T3: Harmonin NPDZ1.PDZ2 (human, UniProt Q9Y6N9-1 1-301)
T3 construct: Harmonin-a1 (USH1C), human, N-terminal domain, PDZ1 and PDZ2, residues 1-301 of UniProt Q9Y6N9-1; source: E. coli BL21 (DE3) Rosetta, purified (Glutathione Sepharose 4B, size-exclusion chromatography)
T3 sequence (looked up): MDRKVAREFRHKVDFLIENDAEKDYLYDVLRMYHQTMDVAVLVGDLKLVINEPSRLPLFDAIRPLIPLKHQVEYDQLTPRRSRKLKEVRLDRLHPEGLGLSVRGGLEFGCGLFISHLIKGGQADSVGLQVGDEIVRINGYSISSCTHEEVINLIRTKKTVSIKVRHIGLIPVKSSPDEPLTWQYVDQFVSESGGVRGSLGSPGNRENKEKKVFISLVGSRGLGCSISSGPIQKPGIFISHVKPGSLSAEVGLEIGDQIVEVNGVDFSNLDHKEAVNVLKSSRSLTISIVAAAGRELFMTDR

T4: Harmonin NPDZ1 (non-fluorescent, as used in MST and SEC-MALS) (human, UniProt Q9Y6N9-1 1-197)
T4 construct: Harmonin-a1 (USH1C), human, N-terminal domain and PDZ1, residues 1-197 of UniProt Q9Y6N9-1; source: E. coli BL21 (DE3) Rosetta, purified (Glutathione Sepharose 4B, size-exclusion chromatography)
T4 sequence (looked up): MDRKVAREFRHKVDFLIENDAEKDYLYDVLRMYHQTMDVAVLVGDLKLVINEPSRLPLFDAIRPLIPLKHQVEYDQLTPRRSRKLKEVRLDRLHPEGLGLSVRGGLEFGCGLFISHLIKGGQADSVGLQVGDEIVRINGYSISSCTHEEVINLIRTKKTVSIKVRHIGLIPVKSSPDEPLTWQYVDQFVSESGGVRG

T5: Full length (FL)-harmonin (harmonin-a1) (human, UniProt Q9Y6N9-1 1-552)
T5 construct: Harmonin-a1 (USH1C), human, residues 1-552 of UniProt Q9Y6N9-1; also called FL-harmonin-a; source: E. coli BL21 (DE3) Rosetta, purified (Glutathione Sepharose 4B, size-exclusion chromatography)
T5 sequence (looked up): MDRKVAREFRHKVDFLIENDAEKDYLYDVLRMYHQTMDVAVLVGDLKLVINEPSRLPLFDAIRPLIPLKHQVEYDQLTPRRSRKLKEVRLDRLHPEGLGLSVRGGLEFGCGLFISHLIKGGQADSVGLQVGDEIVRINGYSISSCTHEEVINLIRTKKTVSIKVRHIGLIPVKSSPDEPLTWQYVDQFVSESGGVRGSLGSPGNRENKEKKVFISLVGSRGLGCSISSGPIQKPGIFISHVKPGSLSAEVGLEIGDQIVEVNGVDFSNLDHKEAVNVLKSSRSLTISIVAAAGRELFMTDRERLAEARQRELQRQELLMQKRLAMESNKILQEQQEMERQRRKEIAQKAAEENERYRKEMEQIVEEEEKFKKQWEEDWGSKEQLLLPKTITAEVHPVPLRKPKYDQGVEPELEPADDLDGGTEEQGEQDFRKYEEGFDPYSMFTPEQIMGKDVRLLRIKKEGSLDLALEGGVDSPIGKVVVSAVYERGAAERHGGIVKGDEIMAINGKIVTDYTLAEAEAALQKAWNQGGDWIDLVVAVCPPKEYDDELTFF

T6: FL-harmonin-ΔCter (human, UniProt Q9Y6N9-1 1-542)
T6 construct: Harmonin-a1 (USH1C), human, residues 1-542 of UniProt Q9Y6N9-1; also called FL ΔCter; source: E. coli BL21 (DE3) Rosetta, purified (Glutathione Sepharose 4B, size-exclusion chromatography)
T6 sequence (looked up): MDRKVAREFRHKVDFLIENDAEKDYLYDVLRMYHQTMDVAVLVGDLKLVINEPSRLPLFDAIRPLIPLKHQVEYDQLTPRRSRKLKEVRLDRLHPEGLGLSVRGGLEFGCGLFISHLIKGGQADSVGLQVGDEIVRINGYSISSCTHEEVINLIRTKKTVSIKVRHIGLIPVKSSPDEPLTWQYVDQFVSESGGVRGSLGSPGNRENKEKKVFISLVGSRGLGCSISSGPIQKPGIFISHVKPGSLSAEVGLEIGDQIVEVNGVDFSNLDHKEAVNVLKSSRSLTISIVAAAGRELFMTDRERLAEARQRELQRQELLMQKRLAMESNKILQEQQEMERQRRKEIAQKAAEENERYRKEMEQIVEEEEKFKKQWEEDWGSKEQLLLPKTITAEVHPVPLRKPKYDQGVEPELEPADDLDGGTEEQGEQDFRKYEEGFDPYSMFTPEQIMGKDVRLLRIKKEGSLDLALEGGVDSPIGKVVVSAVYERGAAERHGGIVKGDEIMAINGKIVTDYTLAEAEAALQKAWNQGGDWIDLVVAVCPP


Legend:
Conditions in all cases: both partners purified
YFP-Harmonin NPDZ1.PDZ2 = molecular target: T1, YFP-Harmonin NPDZ1.PDZ2; test: MST; YFP-fused partner constant at 100 nM, non-fluorescent protein titrated (16 two-fold dilutions); 20 mM Hepes pH 7.0, 100 mM NaCl, 1 mM EGTA, 0.5 mM TCEP, 0.05% Tween 20; Monolith NT.115
[1] = molecular target: T2, YFP-Full length (FL)-harmonin …; test: MST; as a1 but 150 mM NaCl (for FL-Harmonin-a); YFP-fused partner constant at 100 nM, non-fluorescent protein titrated
Harmonin NPDZ1.PDZ2 = molecular target: T3, Harmonin NPDZ1.PDZ2; test: MST; YFP-fused partner constant at 100 nM, non-fluorescent protein titrated (16 two-fold dilutions); 20 mM Hepes pH 7.0, 100 mM NaCl, 1 mM EGTA, 0.5 mM TCEP, 0.05% Tween 20; Monolith NT.115
[2] = molecular target: T4, Harmonin NPDZ1 (non-fluorescent, as …); test: as above
[3] = molecular target: T5, Full length (FL)-harmonin (harmonin-a1); test: MST; as a1 but 150 mM NaCl (for FL-Harmonin-a); YFP-fused partner constant at 100 nM, non-fluorescent protein titrated
FL-harmonin-ΔCter = molecular target: T6, FL-harmonin-ΔCter; test: as above

Binder	Kd (YFP-Harmonin NPDZ1.PDZ2) [µM]	Kd [1] [µM]	Kd (Harmonin NPDZ1.PDZ2) [µM]	Kd [2] [µM]	Kd [3] [µM]	Kd (FL-harmonin-ΔCter) [µM]
Harmonin-a PDZ3c (non-fluorescent, as used in MST) (domain or fragment, human, UniProt Q9Y6N9-1 428-552, looked up, Harmonin-a1 (USH1C), human, PDZ3 plus C-terminal peptide, residues 428-552 of UniProt Q9Y6N9-1; The methods say only that samples for ITC or crystallisation were digested with TEV protease; also called PDZ3c (isoA); source: E. coli BL21 (DE3) Rosetta, purified (Glutathione Sepharose 4B, size-exclusion chromatography)) QDFRKYEEGFDPYSMFTPEQIMGKDVRLLRIKKEGSLDLALEGGVDSPIGKVVVSAVYERGAAERHGGIVKGDEIMAINGKIVTDYTLAEAEAALQKAWNQGGDWIDLVVAVCPPKEYDDELTFF	5.2	1.4	–	–	–	–
YFP-Harmonin-a PDZ3c (domain or fragment, human, UniProt Q9Y6N9-1 428-552, looked up, Harmonin-a1 (USH1C), human, residues 428-552 of UniProt Q9Y6N9-1; also called ^YFPPDZ3c (isoA); source: E. coli BL21 (DE3) Rosetta, purified (Glutathione Sepharose 4B, size-exclusion chromatography)) QDFRKYEEGFDPYSMFTPEQIMGKDVRLLRIKKEGSLDLALEGGVDSPIGKVVVSAVYERGAAERHGGIVKGDEIMAINGKIVTDYTLAEAEAALQKAWNQGGDWIDLVVAVCPPKEYDDELTFF	–	–	3.2	14.2	1.9	2.3
